Experimental data published in the Human Domainome abundance scans (Beltran et al. 2025).

B1: Far upstream element-binding protein 2, residues 142 to 214; numbered along this chain, Q92945 (parent)
chain: RTSMTEEYRVPDGMVGLIIGRGGEQINKIQQDSGCKVQISPDSGGLPERSVSLTGAPESVQKAKMMLDDIVSR

Variants of: B1
Assay: abundance fitness (aPCA) (normalised: wild type 0, dead -1); higher = more abundant; growth selection in yeast, the domain comes from the species named
Details: Homo sapiens

Abundance fitness, by site and new letter:
Y8: H -0.12 | G -0.576 | D -0.477 | I -0.061 | S -0.472 | K -0.417 | N -0.536 | R -0.455 | Q -0.51 | E -0.496 | T -0.214 | W -0.007 | L -0.089 | P -0.342 | C -0.609 | F -0.116 | V -0.057
T5: D -0.319 | Q -0.117 | L -0.384 | G -0.485 | W -0.456 | Y -0.248 | R -0.168 | H -0.235 | E -0.304 | N -0.16 | P -0.62 | C -0.125 | V -0.154 | S -0.11 | F -0.331 | A -0.248
R21: E 0.088 | A 0.026 | F -0.146 | Q -0.015 | S 0.02 | G -0.043 | I -0.191 | C -0.012 | P 0.008 | L 0.042 | K 0.056 | D 0.133 | N 0.074 | M -0.002
S3: G 0.003 | N 0.224 | E 0.151 | I 0.137 | V 0.144 | W 0.05 | P 0.043 | H 0.009 | C 0.152 | K 0.219 | Y 0.125 | A 0.028 | D 0.17 | F 0.251 | T 0.213 | L 0.074 | Q 0.124
V10: L 0.068 | A -0.289 | D -0.467 | M 0.041 | E -0.456 | Y -0.224 | K -0.603 | Q -0.709 | F -0.132 | S -0.628 | I -0.02 | C -0.137 | R -0.741 | T -0.464 | P -0.456 | N -0.567 | W -0.726
I19: V -0.016 | H -0.17 | D -0.179 | C -0.114 | R -0.091 | E -0.103 | P -0.35 | G -0.146 | N -0.029 | F -0.098 | K -0.01 | Q -0.105 | M 0.096 | A -0.096 | Y 0.005 | L 0.008 | W -0.144
L17: C -0.118 | Y -0.147 | G -0.023 | N -0.119 | W -0.111 | P -0.199 | V -0.113 | A 0.016 | F -0.072 | K -0.059 | T 0.045 | I -0.045 | E 0.074 | D 0.061 | Q -0.028 | H -0.087 | S -0.021
M4: K 0.029 | L -0.002 | T -0.063 | Q 0.057 | F 0.02 | D -0.106 | N -0.178 | W -0.15 | S -0.072 | A -0.716 | H -0.107 | I -0.096 | R -0.079 | V -0.069 | G -0.431 | P -0.365 | E -0.085 | C 0.045
P11: K -0.178 | H -0.536 | A -0.131 | G -0.472 | Y -0.712 | D -0.122 | W -0.765 | R -0.299 | F -1.07 | V -0.425 | M -0.375 | E -0.193 | Q -0.221 | N -0.371 | L -0.362 | I -0.277 | T -0.158
M14: R -0.314 | F -0.349 | G -0.361 | E -0.208 | W -0.319 | K -0.017 | I -0.003 | P -0.898 | Y -0.19 | N -0.148 | H -0.235 | S -0.219 | L -0.048 | A -0.111 | Q -0.243 | V -0.094 | T -0.21
